Assay results published in patent publication US20230295310A1 (ABCELLERA BIOLOGICS, published 2023).
Residue numbers refer to the chain shown, from its start. Values belong to the binder of their own block, whether it stands above or below them.

Molecular target: human EGFR, C-terminal eGFP-tagged, on CHO-K1 cells (human, UniProt P00533 25-1210)
Assay: cell-based or functional assay

EC50 CHO-K1 EGFR Low (nM); T cell activation bioassay, luciferase: 0.106 nM
EC50 CHO-K1 EGFR Med (nM); T cell activation bioassay, luciferase: 0.0263 nM
B1: GOMP001_bsAb_011 (bispecific antibody, human IgG1, kappa, L234A L235A)
heavy 1: QVQLVQSGAEVKKPGASVKVSCKASGYTFTSHWMHWVRKAPGQGLEWIGEFNPSNGRTNYNEEFKSKATMTVDTSTNTAYMELSSLRSEDTAVYYCASRDYDYDGRYFDYWGQGTLVTVSSASTKGPSVFPLAPSSKSTSGGTAALGCLVADYFPEPVTVSWNSGALTSGVHTFPAVLQSSGLYSLSSVVTVPSSSLGTQTYICNVNHKPSNTKVDEKVEPKSCDKTHTCPPCPAPEAAGGPSVFLFPPKPKDTLMISRTPEVTCVVVDVSHEDPEVKFNWYVDGVEVHNAKTKPREEQYNSTYRVVSVLTVLHQDWLNGKEYKCKVSNKALPAPIEKTISKAKGQPREPQVYTLPPSREEMTDNQVSLTCLVKGFYPSDIAVEWESNGQPENNYKTTPPVLMSDGSFFLASKLTVDKSRWQQGNVFSCSVMHEALHNHYTQKSLSLSPG
light 1: RIQMTQSPSSLSASVGDRVTITCSASSSVTYMYWYQDKPGKAPKLLIYDTSNLASGVPSRFSGSGSGTDYTFTISSLQPEDIATYYCQQWSSHIFTFGQGTKVEIKRTVAAPSVFIFPPSDKQLKSGTARVVCLLNNFYPREAKVQWKVDNALQSGNSQESVTEQDSKDSTYSLSSTLTLSKADYEKHKVYACEVTHQGLSSPVTKSFNRGEC
heavy 2: EVQLVESGGGLVQPGGSLRLSCAASGFTLSSYTMNWVRYAPGKGLEWVSYISSSSRTIYYSDRVKGRFSISRDNAKNSLYLQMNSLRDEDTALYYCAREDYYDSSGFDNWGRGTLVTVSSASTKGPSVFPLAPSSKSTSGGTAALGCLVKDYFPEPVTVSWNSGALTSGVHTFPAVLQSSGLYSLSSVVTVPSSSLGTQTYICNVNHKPSNTKVDKKVEPKSCDKTHTCPPCPAPEAAGGPSVFLFPPKPKDTLMISRTPEVTCVVVDVSHEDPEVKFNWYVDGVEVHNAKTKPREEQYNSTYRVVSVLTVLHQDWLNGKEYKCKVSNKALPAPIEKTISKAKGQPRRPRVYTLPPSREEMTKNQVSLVCLVKGFYPSDIAVEWESNGQPENNYKTTPPVLDSDGSFFLYSVLTVDKSRWQQGNVFSCSVMHEALHNHYTQKSLSLSPG
light 2: DIRMTQSPSSFSASTGDRVTITCRASQGISSYLAWYQRKPGDAPKLLIYTASTLQSGVPSRFSGSGSGTDFTLTIRSLQSEDFATYYCQQYYSYPRTFGQGTKVEIKRTVAAPSVFIFPPSDEQLKSGTASVVCLLNNFYPREAKVQWKVDNALQSGNSQESVTEQDSKDSTYSLSSTLTLSKADYEKHKVYACEVTHQGLSSPVTKSFNRGEC

EC50 CHO-K1 EGFR Low (nM); T cell activation bioassay, luciferase: 0.147 nM
EC50 CHO-K1 EGFR Med (nM); T cell activation bioassay, luciferase: 0.0234 nM
B2: GOMP001_bsAb_012 (bispecific antibody, human IgG1, kappa, L234A L235A)
heavy 1: B1 heavy 2
light 1: B1 light 2
heavy 2: QVQLVQSGAEVKKPGASVKVSCKASGYTFTSHWMHWVRYAPGQGLEWIGEFNPSNGRTNYNEKFKSKATMTVDTSTNTAYMELSSLRSEDTAVYYCASRDYDYDGRYFDYWGRGTLVTVSSASTKGPSVFPLAPSSKSTSGGTAALGCLVKDYFPEPVTVSWNSGALTSGVHTFPAVLQSSGLYSLSSVVTVPSSSLGTQTYICNVNHKPSNTKVDKKVEPKSCDKTHTCPPCPAPEAAGGPSVFLFPPKPKDTLMISRTPEVTCVVVDVSHEDPEVKFNWYVDGVEVHNAKTKPREEQYNSTYRVVSVLTVLHQDWLNGKEYKCKVSNKALPAPIEKTISKAKGQPRRPRVYTLPPSREEMTKNQVSLVCLVKGFYPSDIAVEWESNGQPENNYKTTPPVLDSDGSFFLYSVLTVDKSRWQQGNVFSCSVMHEALHNHYTQKSLSLSPG
light 2: B1 light 1 with R1D, D37R, K41D, K122E, R130S
